Measurements published in the nanobody polyreactivity screen of Harvey et al. (2022).

Assay: yeast display, Sf9 membrane polyspecificity reagent, FACS + sequencing; frameworks hold sequencing errors
Method in brief: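 Nanobodies came from a synthetic yeast display library in Saccharomyces cerevisiae BJ5465, induced with galactose for 36–48 hours and stained for 1 hour at 4 °C with 10% biotinylated, detergent-solubilized Sf9 membrane reagent. Cells were enriched on streptavidin microbeads and then FACS-sorted, with low and high (top ~1%) gates set on anti-HA fluorescence for expression and streptavidin fluorescence for reagent binding. Each polyreactivity label reflects the gate a clone came from. Genes were amplified by colony PCR, sequenced by MiSeq 2 × 250 and filtered by CDR length.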

Row | Sequence | polyreactivity (PSR sort gate)
1 | QVQLVESGGGLVQPGGSLRLSCAASGSIFYCNAMGSYRQAPGKEREFVAGITTSGGSTYYADSVKGRFTISRDNAKNTVYLQMNSLKPDDTAVYYCNKVWVYAVTPSSWYKYGSWGQGNQVTVSS | low polyreactivity
2 | QVQLVESGGGLVQPGGSLRLSCAASGSIVKSYAMGWYRQAPGKERELVAAITWRSGRTYYADSVKGRFTISRDNAKNTVYLQMNSLKPEDTAVYYCAADDTSYYIYSYDYWGQGTQVTVSS | low polyreactivity
3 | QVQLVESGGGLVQPGGSLRLSCAAYRSTFTDYDKGWYRQAPGKERELVAAITSGGSTNYADSVKGRFTISRDNAKNTFYLQLNSLKPEDTAVYYCAAADSDRKYDYWGQGTQVTVSS | low polyreactivity
4 | QVQLVESGGGLVQPGGSLRLSCSASGSIFRVYGMGWYRQAPGKERELVAAITWSGGSTYYADSVKGRFSISRDKAKNTVYLQQNSLKPEDTAVYYCAARARPRYYRPPYDYWGQGTQVTVSS | high polyreactivity
5 | QVQLVESGGGLVQPGGSLRLSGAASGRILTYYAMGWYRQAPGKERELFAAISWRAGSTYYADSVKGRFTISRDNAKNTVYLQMNSLKPEDTAVYYCAAKPYYIPTRTYSHYNYWGQGTLVTVSS | high polyreactivity
6 | QVQLVESGGGLVQSGGILLLSCAASGITFGRNAMGWYRQAPGKEGELVAAISRGGSTNYADSVKGRFTISRDNAKNTVYLQMNRLKPEDTAVYYCATAYRGRAWGYDYWGQGTQVTVSS | high polyreactivity
7 | QVQLVESGGGLVQSGGSLRLSCAACGGTFYRYAMGWYRQAPGKERELVAAITSGSSTYYADSVKGRFTISRDNAKNTVYLQMNSLTPEDTAVYYCAAARYSRLSRTRPGKYGYWGQGTQVTVST | low polyreactivity
8 | QVQLVESGGGLVQSGGSLRLSCAASGFSFRYYAMGWYRQAPGKERELVAAITQSGGTTYYADSVKGRFTISRDNAKNTVYLQMNSLKPEDTAVYYCNGYGYGFTGKGDYWGQGTQVTVSS | high polyreactivity
9 | QVQLVESGGGLVQSGGSLRLSCAASGFTFYRYTMGWYRQAPGKERELVAISSDGSTNYADSVKGRFTISRDNAKNTVYLQMNSLKPEDTAVYYCNAVYYNWIGFDYWGQGTQVTVSS | low polyreactivity
10 | QVQLVESGGGLVQSGGSLRLSCAASGGIFGINAMGWYRQAPGKEREFVAAITASGGTTYYADSVKGRFTISRDNAKNTVYLQMNRLKPEDTAVYYCAKRYRSYDYVWYEYWGQGTQVTVSS | high polyreactivity
11 | QVQLVESGGGLVQSGGSLRLSCAASGINFLYYAMGWYIQAPGKERELVARINRSGGSTYYADSVKGRFTISRDNAKYTVYLQMNSLKPEDSAVYYCAADYLYRSPAYEHYYWGQGTQVTVSS | high polyreactivity
12 | QVQLVESGGGLVQSGGSLRLSCAASGITFFFNAMGWYRQAPGKERELVAPITSGGGSTYYADSVKGRFTISRENAKNTVYLQMNSLKPEDTAVYYCAAEWSYGGMDYWGQGTQVTVSS | low polyreactivity
13 | QVQLVESGGGLVQSGGSLRLSCAASGRIFDENAMGWYRQAPGKERELVAAITGGDSTNYADSVKGRFTISRDNAKNTVYLQMNSLKPEDTAVYYCAVDVIYYWAEDYDYWGQGTQVTVSS | low polyreactivity
14 | QVQLVESGGGLVQSGGSLRLSCAASGRIFSYYTIGWYRHEPGKEREIVAAITWSGGSTYYADSVKGRFTISRDNAKNTVFLQLNRLKPEDTAVYYCNRVAPHDLRNRQEDNYWGQGTQVTVSS | low polyreactivity
15 | QVQLVESGGGLVQSGGSLRLSCAASGRIFWYNAMRWYSQAPGKDRELVARITRGTRTYYADSVKGRFTISRDNAKNTVYLQMNSLKPEDTAVYYCRLQFSYTPHYDYWGQGTQVTVSS | high polyreactivity
16 | QVQLVESGGGLVQSGGSLRLSCAASGRILSYNTMGSYRQAPGKERELVAAISRGGSTYYADSVKGRFTISRDNAKNTVYLQMNSLKPEDTAVYYCNALLPPGSRKYNYWGQGTQVTVSS | high polyreactivity
17 | QVQLVESGGGLVQSGGSLRLSCAASGRTFGGYAMGWYRQAPGKERELVAAIRRSGGSTYYADSVKGLFTISRDNAKNTFYLQMKSMKPEDTAVYYCAAYGIYNVRIYYLGQGTQVTVSS | high polyreactivity
18 | QVQLVESGGGLVQSGGSLRLSCAASGRTFNANVMGWYRPAPGKERELVAAITYSGGSTYYADSVKGRFTISRDNAKNTVYLQMNSLKPEDTAVYYCAADYVYTFYYWGQGTQVTVSS | low polyreactivity
19 | QVQLVESGGGLVQSGGSLRLSCAASGSIFDFYVMGWYRQAPGKERELVAAITWSDGSTYYADSVKGRFTISRDNAKNTVYLQMNSLKPEDTAVYYCNAGYFPLLGYPADAIGYDYWGQGTQVTVSS | low polyreactivity
20 | QVQLVESGGGLVQSGGSLRLSCAASGSIFNRYAMGWYRQAPGKERELVAAISARGGSTYYADSVKGRFTISRDNAKNTVYLQMNSLKPEDTAVYYCAARRQGDYYYWGQGTQVTVSS | high polyreactivity
21 | QVQLVESGGGLVQSGGSLRLSCAASGSTIFRYAMGWSRQAPGKERELVAAISWSGASTYYADSVKGRFTISRDNAKNPVYLHMNSQKPEDTAVYYCAARSRWYDAAGYPKYYYWGHGTQVTVSS | high polyreactivity
22 | QVQLVESGGGLVQSGGSLRLSCAASGSTVTQYVMGWYRQAPGKERELVAAISDSGSTYYADSVKGRFTISRDKAKNTVYLQMNSLKPEDTAVYYCAAAAPYHGLLYEGDYGGQGTQVTVSS | low polyreactivity

Row | Sequence | polyreactivity (PSR sort gate)
23 | QVQLVESGGGLVQSGGSLRLSGAASGSTYGLNAMGWYRQAPRKEMELVAAITRSDITNYADSVNGRFRISRDNAKNTVYLQMNSLKPEDTAVYYCNKTPDRHRRYFGYGYWGQGTQVTVSS | low polyreactivity
24 | QVQLVESGGGLVQSGGSLRLSSAASGYTFWAYPMGWYRQAPGKERELVAGISSRGSRTYYADSVKGRFTISRDNAKNTVYLQMNSLKPEDTAVYFCNALRTAQGYYPPLDYWGQGTQVTVSS | high polyreactivity
25 | QVQLVESGGGLVQSGGSLRLTWAASGFTFNRYAMGWYRQAPGKEMELVAAITSRSGITYYADSVKGRFTISRDNAKNTVYLQMNSLKPEDTAVYYCAAYVSRSTEFDYGFWGQGTQVTVSS | high polyreactivity
26 | QVQLVESGGGLVQSRVSLRLSCAASGRTIYVNAMGWYRQAPGKEREFVATISGGGSTKYADSVKGRFTISRDNAKNTVYLQMNSLKPEDTAVYYCARRRERYTADSRGYGYWGQGTQVTVSS | low polyreactivity
27 | QVQLVESGGGLVQTGGSLRLSCAASGRIFRSYAMGWYRPAPGKERELVAAISGSGGSTYYADSVKGRFTISRDNAKNTVYVQMNSLKPEDTAVYYCNACKVHPFSTRFYYWGQGTQVTVSS | low polyreactivity
28 | QVQLVESGGGLVQTGGSLRLSCAASGSIFGEYAMGWYRQAPGKEREFVADITWSDGSTYYADSVKGRFTISRDNAKNTVYLQMNSLKPEDTAVYYCAADSVLDRPVLYLWPWYLGDYWGQGTQVTVSS | low polyreactivity
29 | QVQLVESGGGLVQTGGSLRLSCAASGSTFEYNAMGWYRQAPGKERELVAAITWTGGSRYYADSVKGRFTISRDNAKNSVYFQMNSLKPEDTAVYYCNAVSYVDIWDDRRYYYWGQGTQVTVSS | low polyreactivity
30 | QVQLVESGGGLVQTGGSLRLSCAASGSTFYLYTMGWYRQAPGKERELVAAISGRDGSTYYADSVKGRFTISRDNAKNTVYLQMNSLKPEDTAVYYCAADPGYTYVHVTYYYWGQGTQVTVSS | low polyreactivity
31 | QVQLVESGGGLVQVGGSLRLSCAASGRTFWWYAMGWYRQAPGKERELVAAISRGSTNYADSVKGRFTISRDNAKNTVYLQMNSLKPEDTAVYYCKAVSLYQSHDYDYWGQGTQVTVSS | low polyreactivity
32 | QVQLVESGGGLVQVGGSLRLSCAASGRTFYDYAMGWYRQAPGKERELVAAITWSGGSTYYADSVKGRFTISRDNAKNTVYLQMNSLKPEDTAVSYCAKGGSYQSRYDYWGQGTQVTVSS | low polyreactivity
33 | QVQLVESGGGLYQAGGSLRLSCAASGFIFDPYARGWYRQAPGKEMELVASITWYGGRTYYADSVKGRFTISRDNAKNTVYLQMNSLKPEDPAVYYCAARGYTVWDDYWGQGTQVTVSS | high polyreactivity
34 | QVQLVESGGGLYQAGGSLRLSCAASGFILSTNVMGWYRQAPGKEREKVAAISARGGSTYYADSVKGRFTISRDNAKNTVYLQMNILKPEDTAVYYCAARVYVSRSKRLNYWGQGTQVTVSS | high polyreactivity
35 | QVQLVESGGGRDQAGGSLRLSCAASGSTFNGYAMGWYRQAPGKERELVAAISSRGGSTNYADSVKGRFTISRDNAKKTVYLQMNSLKPEDTAVYYCNAVYRRSRSVGSCFDDWGQVTQVTVSS | high polyreactivity
36 | QVQLVESGGGSVQAGGSLRLSCAASGSTFQTNAMGWYRQAPGKERELVAAISRTGGRTYYADSVKGRFTISRDNAKNTVYLQMNSLKPEDTAVYYCAASAWIRYNNRDGYGYWGQGTQVTVSS | high polyreactivity
37 | QVQLVESGGGSVQAGGSLRLSCAASGSTFQYYDMGWYRQAPGKERELVASITGSGDSTYYADSVKGRFTISRDNAKNTVYLQLNSLKPEDTAVYYCAAQNTWSGDYDYWGQGTQVTVSS | low polyreactivity
38 | QVQLVESGGGSVQAGGSLRLSCAASGSTFWSYAMGWYRQAPGKERELVAVITGSDGRTFYADSVKGRFTISRDNANNTFFLQMNSLKPEDTAVYYCAADALFRATRFDRSTSEDDYWGQGTQVTVSS | low polyreactivity
39 | QVQLVESGGGVVQAGGSLRISCAASGRTFGVYVMGWYRQAPGKERELVAAISSSGGRTYYADSVKGRFTISRDNAKNTFYLQMNSLKPEDTAVFYCNAVRRREERDGPPNQMDYWGQGTQVTVSS | high polyreactivity
40 | QVQLVESGGGVVQAGGSLRISCDASGRTFWNYAMGWYRQAPGLERELVAVIRFSDGSTYYADSVKGRFTISRDNAKNTVYLQRNSLKPEDTAVYYCAAKGPRRWGSGFDYWGQGTQVTVSS | low polyreactivity
41 | QVQLVESGGGVVQAGGSLRLICAASGSTFGVYAMGWYRQAPGKERELFASISESGGNTYYADSVKGRFTISRDNAKNTVYLQMNSLKPDDTAVYYCNTDVVDVHYIQAYYWGQVTQVTVSS | low polyreactivity
42 | QVQLVESGGGVVQAGGSLRLSCAASGFIFWVYALGWYRQAPGKASELVAAITGRGGRTYYVDAVKGRFTISRDNAKNTVYLQMNSLKPEDTAVYYCNTVPYPAYLARMVYWGQGTQVTVTS | high polyreactivity
43 | QVQLVESGGGVVQAGGSLRLSCAASGFTFVWHAMGWYRQAPGKEREFVAAISRRGGTTNYADSVKGRFTISRDNAKNTVYLQMNSLKPEDTAVYYCNIEPRYRSSGGMDYWGQGTQVTASS | high polyreactivity
